What is called EC50 is the concentration at which the effect is half-maximal.

Changes are numbered by the printed parent chain.

This is an account of results in patent US20240018237A1 (SICHUAN KELUN BIOTECH BIOPHARMACEUTICAL, published 2024).

The labels stand for the following.
B1: 38F8-Hu34 (antibody, human IgG1, kappa, V domains shown)
VH: QVQLVESGGGLVKPGGSLRLSCAASGFTFSNYAMSWVRQAPGKGLEWVASISSGGPTYYADSVKGRFTISRDNAKNSLYLQMNSLRAEDTAVYYCARGYRYDVNWYFDVWGAGTMVTVSS
VL: DIQMTQSPSSLSASVGDRVTITCQASQDISNYLTWFQQKPGKSPKTLIHRANRLVTGVPSRFSGSGSGTDFTFTISSLQPEDIATYYCLQYDEFPYTFGGGTKVEIKR
notes: humanized, human IgG1 / kappa
B2: 38F8-Hu56 (antibody, human IgG1, kappa, V domains shown)
VH: B1 VH with Q1E, K13Q, G42E, G44R, A60P, I69V, A74S, S77T
VL: B1 VL with S30N, N31S
notes: humanized, human IgG1 / kappa
B3: 38F8-Hu37 (antibody, human IgG1, kappa, V domains shown)
VH: B1 VH
VL: B1 VL with F71Y, T85I
notes: humanized, human IgG1 / kappa
B4: 38F8-Hu68 (antibody, human IgG1, kappa, V domains shown)
VH: B1 VH with G42E, G44R, A60P
VL: B1 VL with S30N, N31S, F71Y, T85I
notes: humanized, human IgG1 / kappa
B5: 38F8-Hu38 (antibody, human IgG1, kappa, V domains shown)
VH: B1 VH
VL: B1 VL with S30N, N31S, F71Y, T85I
notes: humanized, human IgG1 / kappa
B6: 38F8-Hu64 (antibody, human IgG1, kappa, V domains shown)
VH: B1 VH with G42E, G44R, A60P
VL: B1 VL
notes: humanized, human IgG1 / kappa
B7: 38F8-Hu58 (antibody, human IgG1, kappa, V domains shown)
VH: B1 VH with Q1E, K13Q, G42E, G44R, A60P, I69V, A74S, S77T
VL: B1 VL with S30N, N31S, F71Y, T85I
notes: humanized, human IgG1 / kappa
B8: 38F8-Hu67 (antibody, human IgG1, kappa, V domains shown)
VH: B1 VH with G42E, G44R, A60P
VL: B1 VL with F71Y, T85I
notes: humanized, human IgG1 / kappa
B9: 38F8-Hu36 (antibody, human IgG1, kappa, V domains shown)
VH: B1 VH
VL: B1 VL with S30N, N31S
notes: humanized, human IgG1 / kappa
B10: 38F8-Hu66 (antibody, human IgG1, kappa, V domains shown)
VH: B1 VH with G42E, G44R, A60P
VL: B1 VL with S30N, N31S
notes: humanized, human IgG1 / kappa
B11: 38F8-Hu54 (antibody, human IgG1, kappa, V domains shown)
VH: B1 VH with Q1E, K13Q, G42E, G44R, A60P, I69V, A74S, S77T
VL: B1 VL
notes: humanized, human IgG1 / kappa
B12: 19F6-Hu35V5 (antibody, human IgG1, kappa, V domains shown)
VH: QVQLQESGPGLVKPSQTLSLTCTVSGYSITSDYAWNWIRQFPGKGLEWIGYISYSGSIRYNPSLKSRVTISRDTSKNQFSLKLSSVTAADTAVYYCARGEITYYFDYWGQGTLVTVSS
VL: ETTLTQSPAFMSATPGDKVTISCKASTDIDDDMNWYQQKPGKPPKLIISEGNTLRPGIPPRFSSSGYGTDFTFTINNIKSEDAATYYCLQSNDLPLTFGQGTKLEIKR
notes: humanized, human IgG1 / kappa
B13: 19F6-Hu35V4 (antibody, human IgG1, kappa, V domains shown)
VH: B12 VH
VL: B12 VL with D28S, D31N, N77K, K79E
notes: humanized, human IgG1 / kappa
B14: 19F6-Hu35V3 (antibody, human IgG1, kappa, V domains shown)
VH: B12 VH
VL: B12 VL with D28S, N77K, K79E
notes: humanized, human IgG1 / kappa
B15: 19F6-Hu15 (antibody, human IgG1, kappa, V domains shown)
VH: B12 VH with Q16E, S25T, F41P, I49M, N61K, S66D, V68I
VL: B12 VL with K42E, K79E, T85D
notes: humanized, human IgG1 / kappa
B16: 19F6-Hu35V6 (antibody, human IgG1, kappa, V domains shown)
VH: B12 VH
VL: B12 VL with D31N
notes: humanized, human IgG1 / kappa
B17: 19F6-Hu35V7 (antibody, human IgG1, kappa, V domains shown)
VH: B12 VH
VL: B12 VL with D28S, K79Q
notes: humanized, human IgG1 / kappa
B18: 19F6-Hu25 (antibody, human IgG1, kappa, V domains shown)
VH: B12 VH with Q16E, F41P, I49M, S66D, V68I
VL: B12 VL with K42E, K79E, T85D
notes: humanized, human IgG1 / kappa
B19: 19F6-Hu35V2 (antibody, human IgG1, kappa, V domains shown)
VH: B12 VH
VL: B12 VL with D31S, K42E, N77K
notes: humanized, human IgG1 / kappa
B20: 19F6-Hu35 (antibody, human IgG1, kappa, V domains shown)
VH: B12 VH
VL: B12 VL with K42E, K79E, T85D
notes: humanized, human IgG1 / kappa

T1 sequence (Q01973 30-937): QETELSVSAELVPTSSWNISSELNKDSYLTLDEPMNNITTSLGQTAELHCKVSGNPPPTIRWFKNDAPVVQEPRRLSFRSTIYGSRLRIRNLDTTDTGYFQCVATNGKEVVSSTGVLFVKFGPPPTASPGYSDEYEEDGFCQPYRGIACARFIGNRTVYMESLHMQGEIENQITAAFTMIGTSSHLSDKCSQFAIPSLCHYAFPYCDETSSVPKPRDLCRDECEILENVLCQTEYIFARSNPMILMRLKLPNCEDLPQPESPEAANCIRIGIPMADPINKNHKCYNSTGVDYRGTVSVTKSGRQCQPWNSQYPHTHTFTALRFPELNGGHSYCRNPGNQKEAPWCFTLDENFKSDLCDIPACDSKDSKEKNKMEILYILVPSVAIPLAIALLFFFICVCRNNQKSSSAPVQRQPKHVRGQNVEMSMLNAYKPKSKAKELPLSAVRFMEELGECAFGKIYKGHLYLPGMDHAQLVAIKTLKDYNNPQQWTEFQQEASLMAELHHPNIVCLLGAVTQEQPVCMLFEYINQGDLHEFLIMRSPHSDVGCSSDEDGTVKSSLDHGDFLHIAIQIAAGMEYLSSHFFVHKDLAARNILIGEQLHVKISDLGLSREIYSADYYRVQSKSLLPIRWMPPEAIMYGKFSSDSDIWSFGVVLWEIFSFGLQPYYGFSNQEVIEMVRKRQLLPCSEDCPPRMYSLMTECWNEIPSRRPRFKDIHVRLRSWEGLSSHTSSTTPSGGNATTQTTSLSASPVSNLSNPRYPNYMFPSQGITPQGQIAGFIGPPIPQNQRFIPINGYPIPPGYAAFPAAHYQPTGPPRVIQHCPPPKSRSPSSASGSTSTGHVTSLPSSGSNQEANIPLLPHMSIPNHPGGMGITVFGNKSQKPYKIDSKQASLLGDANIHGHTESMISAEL

One assay concerns the target T1, human ROR1 (full-length, on the cell surface) (human, UniProt Q01973 30-937).
T1 construct: whole, on cells; the tumour cell lines carry their own ROR1; also called Ba/F3-ROR1 cells; Jeko-1
As to the kind of experiment: flow cytometry, Ba/F3-ROR1 cells. As to the method:
(§1) The affinities of the anti-human ROR1 humanized antibodies to Ba/F3-ROR1, Jeko-1, HT-29 and A549 cells were detected by flow cytometry. The specific experimental steps were as follows: the BaBF3-ROR1, Jeko-1, HT-29 and A549 cells were incubated with the purified humanized antibodies of different concentration gradients on ice for 30 minutes, and the anti-ROR1 antibody UC961 with human IgG1 and the anti-TNP antibody were used as positive and negative controls, respectively.
In general terms: Flow cytometry measures light scatter and fluorescence of single cells or particles in a stream.
As for B1, it took 1.23 nM to reach a half-maximal effect (EC50). In other words, the single-digit nanomolar range.

With B2, the half-maximal effective concentration (EC50) turned out to be 1.09 nM.

The molecule B3 returned an EC50 of 2.35 nM.

B4 had a concentration giving a half-maximal response (EC50) of 2.19 nM.

For B5, a half-maximal response (EC50) required 1.43 nM.

For the molecule B6, the concentration for a half-maximal effect (EC50) worked out at 1.2 nM.

In turn, B7 yielded an EC50 of 1.45 nM. The EC50 values of the last two molecules are within 1.5-fold of each other.

Molecule B8 had an EC50 of 0.84 nM.

With B9, the concentration for a half-maximal effect (EC50) was determined as 1.16 nM. This EC50 and that of the molecule before are within 1.5-fold of each other.

With B10, the EC50 is 0.93 nM.

For B11, the concentration for a half-maximal effect (EC50) stood at 1.57 nM. Against the preceding molecule, the EC50 is about 1.7-fold higher.

A further assay has as its target T1, human ROR1 (full-length, on the cell …). The experiment in a line: flow cytometry, Jeko-1 cells. As for the experimental part:
as §1
For B12, the 50% effective concentration (EC50) was 0.13 nM.

As for B13, the EC50 is 0.2 nM.

Turning to B14, the EC50 was 0.18 nM.

Regarding B15, the EC50 came out at 0.21 nM.

Consider B16, for which the EC50 was 0.2 nM.

The molecule B17 showed an EC50 of 0.22 nM.

In turn, B18 displayed a concentration giving a half-maximal response (EC50) of 0.19 nM.

The molecule B19 displayed a half-maximal effective concentration (EC50) of 0.19 nM.

Consider B20, for which a half-maximal response (EC50) required 0.15 nM.

Turning to B1, the response was half-maximal at 0.06 nM (EC50).

With B2, the EC50 was determined as 0.1 nM.

As to B3, the midpoint of the response, the EC50, lay at 0.1 nM.

B4 showed a 50% effective concentration (EC50) of 0.11 nM.

In the case of B5, the response was half-maximal at 0.13 nM (EC50).

B6: a half-maximal effect (EC50) was put at 0.09 nM.

The molecule B7 registered a 50% effective concentration (EC50) of 0.09 nM. This counts as picomolar.

For B8, the EC50 amounted to 0.1 nM.

B9 displayed an EC50 of 0.09 nM.

In turn, B10 returned a half-maximal effective concentration (EC50) of 0.11 nM.

As to B11, a half-maximal response (EC50) required 0.09 nM.

A further assay has the same target. The experiment in a line: flow cytometry, A549 cells. As to the method: as §1
In the case of B12, the EC50 stood at 0.16 nM. That is a sub-nanomolar value.

B13 yielded a 50% effective concentration (EC50) of 0.15 nM.

B14 displayed an EC50 of 0.1 nM.

Take B15: a half-maximal response (EC50) required 0.09 nM.

B16: the EC50 came to 0.08 nM.

For the molecule B17, the EC50 was found to be 0.1 nM.

B18: the 50% effective concentration (EC50) was found to be 0.13 nM.

With B19, the concentration for a half-maximal effect (EC50) worked out at 0.1 nM. This EC50 and that of the molecule before are within 1.5-fold of each other.

Molecule B20 came in with an EC50 of 0.08 nM.

In turn, B1 displayed an EC50 of 0.19 nM.

The molecule B2 showed an EC50 of 0.32 nM.

In turn, B3 had an EC50 of 0.31 nM.

Turning to B4, the EC50 was found to be 0.54 nM.

For B5, the EC50 was 0.38 nM.

In the case of B6, the concentration for a half-maximal effect (EC50) is 0.31 nM. This EC50 and that of the molecule before are within 1.5-fold of each other.

As for B7, the EC50 is 0.32 nM.

B8 yielded an EC50 of 0.4 nM.

On to B9, for which the concentration for a half-maximal effect (EC50) was 0.3 nM.

B10 came in with a 50% effective concentration (EC50) of 0.35 nM. This EC50 and that of the molecule before are within 1.5-fold of each other.

For B11, the midpoint of the response, the EC50, lay at 0.46 nM.

The target is the same in another assay. The experiment in a line: flow cytometry, HT-29 cells. As for the experimental part: as §1
In turn, B12 registered a 50% effective concentration (EC50) of 0.17 nM.

B13 had an EC50 of 0.3 nM.

The molecule B14 displayed a concentration giving a half-maximal response (EC50) of 0.17 nM.

Regarding B15, the response was half-maximal at 0.07 nM (EC50).

The molecule B16 came in with a concentration for a half-maximal effect (EC50) of 0.16 nM.

Molecule B17 yielded an EC50 of 0.18 nM.

In turn, B18 had an EC50 of 0.08 nM.

On to B19, for which the EC50 was determined as 0.18 nM.

As to B20, the midpoint of the response, the EC50, lay at 0.09 nM.

B1 registered an EC50 of 0.29 nM.

Take B2: the EC50 was 0.42 nM. This EC50 and that of the molecule before are within 1.5-fold of each other.

In turn, B3 came in with a 50% effective concentration (EC50) of 0.44 nM.

Regarding B4, the midpoint of the response, the EC50, lay at 0.55 nM.

Molecule B5 returned an EC50 of 0.59 nM.

On to B6, for which a half-maximal effect (EC50) was put at 0.42 nM. This EC50 and that of the molecule before are within 1.5-fold of each other.

For B7, a half-maximal effect (EC50) was put at 0.43 nM.

Take B8: the midpoint of the response, the EC50, lay at 0.61 nM.

As for B9, it took 0.37 nM to reach a half-maximal effect (EC50). Compared with the last molecule, the EC50 is about 1.6-fold lower.

B10: the EC50 was found to be 0.44 nM.

With B11, the response was half-maximal at 0.49 nM (EC50).

A further assay shares this target. As to the kind of experiment: flow cytometry, Ba/F3-ROR1 cells. The source holds these as a separate data set.
Turning to B12, the EC50 is 0.17 nM.

The molecule B13 displayed a half-maximal effective concentration (EC50) of 0.28 nM.

Molecule B14 gave a concentration for a half-maximal effect (EC50) of 0.18 nM. Against the preceding molecule, the EC50 is about 1.6-fold lower.

In turn, B15 returned an EC50 of 0.33 nM.

Consider B16, for which the response was half-maximal at 0.17 nM (EC50).

As for B17, the concentration giving a half-maximal response (EC50) was determined as 0.19 nM. The EC50 values of the last two molecules are within 1.5-fold of each other.

Molecule B18 showed an EC50 of 0.61 nM.

On to B19, for which the 50% effective concentration (EC50) is 0.19 nM. Against the preceding molecule, the EC50 is about 3.2-fold lower.

In the case of B20, the midpoint of the response, the EC50, lay at 0.38 nM.
